From patent US20060121570A1 (published 2006) come the findings set out here.

The term IC50 denotes the midpoint of a concentration-inhibition curve. Read a low IC50 as inhibition by little substance. Usually kon stands for the rate constant with which the complex forms.

The target in assay [1] is T1, platelet integrin αIIbβ3 (human platelet glycoprotein gpIIb/IIIa), purified (human, UniProt P08514 32-1039; P05106 27-788).
T1 construct: mature
Description: inhibition of 125I-fibrinogen binding to purified αIIbβ3.

The target in assay [2] is T1, platelet integrin αIIbβ3 (human …). Description: SPR (BIAcore), αIIbβ3 immobilized. (Surface plasmon resonance follows binding to a sensor surface in real time, without labels.)

Molecule Ac-GCSFGRTDQRNCY-NH2 (cysteine pairing not given here, also called peptide 32 (linear)) [linear peptide GCSFGRTDQRNCY derived from the HCDR3 of MTF-32] displayed an IC50 in assay [1] of 2000 nM.

B1: circular peptide CSFGRTDQRNC derived from the HCDR3 of MTF-32 (peptide)
peptide: CSFGRTDQRNC
HELM: PEPTIDE1{[ac].C.S.F.G.R.T.D.Q.R.N.C.[am]}$PEPTIDE1,PEPTIDE1,2:R3-12:R3$$$V2.0
SMILES: CC(=O)N[C@H]1CSSC[C@@H](C(N)=O)NC(=O)[C@H](CC(N)=O)NC(=O)[C@H](CCCNC(=N)N)NC(=O)[C@H](CCC(N)=O)NC(=O)[C@H](CC(=O)O)NC(=O)[C@H]([C@@H](C)O)NC(=O)[C@H](CCCNC(=N)N)NC(=O)CNC(=O)[C@H](Cc2ccccc2)NC(=O)[C@H](CO)NC1=O
notes: also called peptide 32 (circular)
Molecule B1 displayed an IC50 in assay [1] of 2000 nM. The same measure, in the same setting: the figure for Ac-GCSFGRNDSRNCY-NH2 (cysteine pairing not given here, also called peptide 40 (linear)) [linear peptide GCSFGRNDSRNCY derived from the HCDR3 of MTF-40] is 500 nM.

B2: circular peptide CSFGRNDSRNC derived from the HCDR3 of MTF-40 (peptide)
peptide: CSFGRNDSRNC
HELM: PEPTIDE1{[ac].C.S.F.G.R.N.D.S.R.N.C.[am]}$PEPTIDE1,PEPTIDE1,2:R3-12:R3$$$V2.0
SMILES: CC(=O)N[C@H]1CSSC[C@@H](C(N)=O)NC(=O)[C@H](CC(N)=O)NC(=O)[C@H](CCCNC(=N)N)NC(=O)[C@H](CO)NC(=O)[C@H](CC(=O)O)NC(=O)[C@H](CC(N)=O)NC(=O)[C@H](CCCNC(=N)N)NC(=O)CNC(=O)[C@H](Cc2ccccc2)NC(=O)[C@H](CO)NC1=O
notes: also called peptide 40 (circular)
On to B2, for which the half-maximal inhibitory concentration (IC50) in assay [1] was 500 nM. That is a sub-micromolar value.

B3: fibrinogen (ligand)
chain 1: ADSGEGDFLAEGGGVRGPRVVERHQSACKDSDWPFCSDEDWNYKCPSGCRMKGLIDEVNQDFTNRINKLKNSLFEYQKNNKDSHSLTTNIMEILRGDFSSANNRDNTYNRVSEDLRSRIEVLKRKVIEKVQHIQLLQKNVRAQLVDMKRLEVDIDIKIRSCRGSCSRALAREVDLKDYEDQQKQLEQVIAKDLLPSRDRQHLPLIKMKPVPDLVPGNFKSQLQKVPPEWKALTDMPQMRMELERPGGNEITRGGSTSYGTGSETESPRNPSSAGSWNSGSSGPGSTGNRNPGSSGTGGTATWKPGSSGPGSTGSWNSGSSGTGSTGNQNPGSPRPGSTGTWNPGSSERGSAGHWTSESSVSGSTGQWHSESGSFRPDSPGSGNARPNNPDWGTFEEVSGNVSPGTRREYHTEKLVTSKGDKELRTGKEKVTSGSTTTTRRSCSKTVTKTVIGPDGHKEVTKEVVTSEDGSDCPEAMDLGTLSGIGTLDGFRHRHPDEAAFFDTASTGKTFPGFFSPMLGEFVSETESRGSESGIFTNTKESSSHHPGIAEFPSRGKSSSYSKQFTSSTSYNRGDSTFESKSYKMADEAGSEADHEGTHSTKRGHAKSRPV
chain 2: QGVNDNEEGFFSARGHRPLDKKREEAPSLRPAPPPISGGGYRARPAKAAATQKKVERKAPDAGGCLHADPDLGVLCPTGCQLQEALLQQERPIRNSVDELNNNVEAVSQTSSSSFQYMYLLKDLWQKRQKQVKDNENVVNEYSSELEKHQLYIDETVNSNIPTNLRVLRSILENLRSKIQKLESDVSAQMEYCRTPCTVSCNIPVVSGKECEEIIRKGGETSEMYLIQPDSSVKPYRVYCDMNTENGGWTVIQNRQDGSVDFGRKWDPYKQGFGNVATNTDGKNYCGLPGEYWLGNDKISQLTRMGPTELLIEMEDWKGDKVKAHYGGFTVQNEANKYQISVNKYRGTAGNALMDGASQLMGENRTMTIHNGMFFSTYDRDNDGWLTSDPRKQCSKEDGGGWWYNRCHAANPNGRYYWGGQYTWDMAKHGTDDGVVWMNWKGSWYSMRKMSMKIRPFFPQQ
chain 3: YVATRDNCCILDERFGSYCPTTCGIADFLSTYQTKVDKDLQSLEDILHQVENKTSEVKQLIKAIQLTYNPDESSKPNMIDAATLKSRKMLEEIMKYEASILTHDSSIRYLQEIYNSNNQKIVNLKEKVAQLEAQCQEPCKDTVQIHDITGKDCQDIANKGAKQSGLYFIKPLKANQQFLVYCEIDGSGNGWTVFQKRLDGSVDFKKNWIQYKEGFGHLSPTGTTEFWLGNEKIHLISTQSAIPYALRVELEDWNGRTSTADYAMFKVGPEADKYRLTYAYFAGGDAGDAFDGFDFGDDPSDKFFTSHNGMQFSTWDNDNDKFEGNCAEQDGSGWWMNKCHAGHLNGVYYQGGTYSKASTPNGYDNGIIWATWKTRWYSMKKTTMKIIPFNRLTIGEGQQHHLGGAKQAGDV
For B3, in assay [2], the on-rate constant (kon) was 600000 M⁻¹ s⁻¹.
